The record followed here is patent US20140256916A1 (Sanofi, published 2014).

For test [1], the target named is T1, CA6, tumor-associated MUC1-sialoglycotope (human, UniProt P15941 24-1255, carries the CA6 sialoglycotope (sialylated glycan epitope); sites not stated).
T1 construct: whole, on cells; In the assays it is presented on WISH cells (CA6+); A2780 cells are CA6 negative; also called CA6 antigen; human CA6 tumor antigen
As to the kind of experiment: flow cytometry on WISH (CA6+) cells (method from Example 4). On the technique in general: In flow cytometry, cells or beads pass a laser one at a time.

In test [2] the target is T1, CA6, tumor-associated …. As to the kind of experiment: flow cytometry (FACS) on WISH cells (CA6+), normalized fluorescence, without DOTA.
Test [3] addresses T1, CA6, tumor-associated …. The test is described as follows: flow cytometry (FACS) on WISH cells (CA6+), normalized fluorescence, with DOTA.
The target of test [4] is T1, CA6, tumor-associated …. The test is described as follows: flow cytometry (FACS) on WISH cells (CA6+). How it is done:
The B-Fab 1153 is a DS6-based engineered antibody-like binding protein containing a both L1 and L2 linkers as (G45)₂ and not containing a C-terminal 6x-His tag. Since this protein was lacking a His tag the protein was purified by […], Kappa-select and SEC. The in vitro binding solution was prepared at 1.6 mg/ml in PBS and binding affinity was characterized using flow cytometry in the WISH CA6+ cell line (FIG. 3C and FIG. 3D).

Test [5] addresses T1, CA6, tumor-associated …. The test is described as follows: FACS binding assay (Free), Kd app; unconjugated (Free) B-Fab, not DOTA conjugate.
Test [6] addresses T1, CA6, tumor-associated …. As to the kind of experiment: FACS binding assay (DOTA Conjugate), Kd app.
For test [7], the target named is T1, CA6, tumor-associated …. As to the kind of experiment: FACS binding assay (Free), Kd app.

T1 sequence (P15941 24-1255): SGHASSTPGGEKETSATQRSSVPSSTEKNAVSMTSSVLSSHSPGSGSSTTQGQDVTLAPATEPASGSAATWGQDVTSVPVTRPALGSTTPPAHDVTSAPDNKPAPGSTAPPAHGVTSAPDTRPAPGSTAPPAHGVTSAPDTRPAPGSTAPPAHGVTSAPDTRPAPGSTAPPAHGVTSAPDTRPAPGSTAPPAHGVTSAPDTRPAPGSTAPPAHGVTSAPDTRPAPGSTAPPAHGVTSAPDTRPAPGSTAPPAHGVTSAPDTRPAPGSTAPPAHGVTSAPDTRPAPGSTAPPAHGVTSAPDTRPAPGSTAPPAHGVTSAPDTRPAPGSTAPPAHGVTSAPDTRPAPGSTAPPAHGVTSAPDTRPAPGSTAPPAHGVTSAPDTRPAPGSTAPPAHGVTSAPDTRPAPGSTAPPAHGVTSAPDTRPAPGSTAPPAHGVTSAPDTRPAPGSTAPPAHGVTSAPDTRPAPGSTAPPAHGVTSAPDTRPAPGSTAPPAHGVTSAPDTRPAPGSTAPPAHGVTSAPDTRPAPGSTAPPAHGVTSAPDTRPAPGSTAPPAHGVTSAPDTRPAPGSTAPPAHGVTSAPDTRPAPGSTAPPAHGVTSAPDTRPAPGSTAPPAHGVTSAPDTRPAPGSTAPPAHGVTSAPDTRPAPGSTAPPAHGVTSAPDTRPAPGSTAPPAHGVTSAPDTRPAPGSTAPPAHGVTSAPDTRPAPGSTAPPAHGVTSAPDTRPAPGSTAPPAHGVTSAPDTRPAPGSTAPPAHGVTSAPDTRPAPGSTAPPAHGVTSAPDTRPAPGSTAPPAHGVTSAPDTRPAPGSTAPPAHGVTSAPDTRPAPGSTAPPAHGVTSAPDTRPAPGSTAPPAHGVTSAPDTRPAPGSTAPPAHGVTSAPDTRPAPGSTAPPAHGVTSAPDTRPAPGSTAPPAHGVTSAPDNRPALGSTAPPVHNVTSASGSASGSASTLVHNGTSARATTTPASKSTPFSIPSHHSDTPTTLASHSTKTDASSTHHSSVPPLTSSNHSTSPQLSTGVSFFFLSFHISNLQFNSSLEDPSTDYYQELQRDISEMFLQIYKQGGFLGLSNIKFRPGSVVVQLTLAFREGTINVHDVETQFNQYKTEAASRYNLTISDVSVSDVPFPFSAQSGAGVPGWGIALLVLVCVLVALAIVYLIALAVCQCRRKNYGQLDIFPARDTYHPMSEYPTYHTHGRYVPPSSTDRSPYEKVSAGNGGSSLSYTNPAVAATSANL

B1: B-Fab 1152 (Fab)
light: EIVLTQSPATMSASPGERVTITCSAHSSVSFMHWFQQKPGTSPKLWIYSTSSLASGVPARFGGSGSGTSYSLTISSMEAEDAATYYCQQRSSFPLTFGAGTKLELKGGGGSEIVLTQSPATMSASPGERVTITCSAHSSVSFMHWFQQKPGTSPKLWIYSTSSLASGVPARFGGSGSGTSYSLTISSMEAEDAATYYCQQRSSFPLTFGAGTKLELKRTVAAPSVFIFPPSDEQLKSGTASVVCLLNNFYPREAKVQWKVDNALQSGNSQESVTEQDSKDSTYSLSSTLTLSKADYEKHKVYACEVTHQGLSSPVTKSFNRGEC
heavy: EAQLVQSGAEVVKPGASVKMSCKASGYTFTSYNMHWVKQTPGQGLEWIGYIYPGNGATNYNQKFQGKATLTADPSSSTAYMQISSLTSEDSAVYFCARGDSVPFAYWGQGTLVTVSAGGGGSEAQLVQSGAEVVKPGASVKMSCKASGYTFTSYNMHWVKQTPGQGLEWIGYIYPGNGATNYNQKFQGKATLTADPSSSTAYMQISSLTSEDSAVYFCARGDSVPFAYWGQGTLVTVSAASTKGPSVFPLAPSSKSTSGGTAALGCLVKDYFPEPVTVSWNSGALTSGVHTFPAVLQSSGLYSLSSVVTVPSSSLGTQTYICNVNHKPSNTKVDKKVEPKSCDKTHT
notes: also called B-Fab G4S linker and C-terminal 6x-His tag; B-Fab DS6 based engineered antibody with GGGGS (G4S) linker and C-terminal 6x-His tag
On to B1, for which the Kd in test [1] is 88 nM.

B2: DS6 B-Fab antibody-like binding protein (variant not named) (Fab)
light: EIVLTQSPATMSASPGERVTITCSAHSSVSFMHWFQQKPGTSPKLWIYSTSSLASGVPARFGGSGSGTSYSLTISSMEAEDAATYYCQQRSSFPLTFGAGTKLELKGGGGSGGGGSEIVLTQSPATMSASPGERVTITCSAHSSVSFMHWFQQKPGTSPKLWIYSTSSLASGVPARFGGSGSGTSYSLTISSMEAEDAATYYCQQRSSFPLTFGAGTKLELKRTVAAPSVFIFPPSDEQLKSGTASVVCLLNNFYPREAKVQWKVDNALQSGNSQESVTEQDSKDSTYSLSSTLTLSKADYEKHKVYACEVTHQGLSSPVTKSFNRGEC
heavy: EAQLVQSGAEVVKPGASVKMSCKASGYTFTSYNMHWVKQTPGQGLEWIGYIYPGNGATNYNQKFQGKATLTADPSSSTAYMQISSLTSEDSAVYFCARGDSVPFAYWGQGTLVTVSAGGGGSGGGGSEAQLVQSGAEVVKPGASVKMSCKASGYTFTSYNMHWVKQTPGQGLEWIGYIYPGNGATNYNQKFQGKATLTADPSSSTAYMQISSLTSEDSAVYFCARGDSVPFAYWGQGTLVTVSAASTKGPSVFPLAPSSKSTSGGTAALGCLVKDYFPEPVTVSWNSGALTSGVHTFPAVLQSSGLYSLSSVVTVPSSSLGTQTYICNVNHKPSNTKVDKKVEPKSCDKTHT
notes: also called B-Fab DS6 based engineered antibody
In general, EC50 (read off the curve) refers to the concentration needed to bring the measured effect to its halfway point. Low readings indicate greater potency, high ones weaker potency. As for B2, in test [2], the 50% effective concentration (EC50 (read off the curve)) is roughly 2 nM and the Kd came out at 2.2 nM.

B3: DOTA-DS6 conjugated antibody (B-Fab with DOTA, variant not named) (Fab)
light: EIVLTQSPATMSASPGERVTITCSAHSSVSFMHWFQQKPGTSPKLWIYSTSSLASGVPARFGGSGSGTSYSLTISSMEAEDAATYYCQQRSSFPLTFGAGTKLELKGGGGSGGGGSEIVLTQSPATMSASPGERVTITCSAHSSVSFMHWFQQKPGTSPKLWIYSTSSLASGVPARFGGSGSGTSYSLTISSMEAEDAATYYCQQRSSFPLTFGAGTKLELKRTVAAPSVFIFPPSDEQLKSGTASVVCLLNNFYPREAKVQWKVDNALQSGNSQESVTEQDSKDSTYSLSSTLTLSKADYEKHKVYACEVTHQGLSSPVTKSFNRGEC
heavy: EAQLVQSGAEVVKPGASVKMSCKASGYTFTSYNMHWVKQTPGQGLEWIGYIYPGNGATNYNQKFQGKATLTADPSSSTAYMQISSLTSEDSAVYFCARGDSVPFAYWGQGTLVTVSAGGGGSGGGGSEAQLVQSGAEVVKPGASVKMSCKASGYTFTSYNMHWVKQTPGQGLEWIGYIYPGNGATNYNQKFQGKATLTADPSSSTAYMQISSLTSEDSAVYFCARGDSVPFAYWGQGTLVTVSAASTKGPSVFPLAPSSKSTSGGTAALGCLVKDYFPEPVTVSWNSGALTSGVHTFPAVLQSSGLYSLSSVVTVPSSSLGTQTYICNVNHKPSNTKVDKKVEPKSCDKTHT
modifications: DOTA chelator conjugated, sites not stated
With B3, in test [3], the “EC50 (read off the curve)” value is roughly 6 nM and the Kd turned out to be 6.6 nM.

B4: B-Fab 1153 (Fab)
light: EIVLTQSPATMSASPGERVTITCSAHSSVSFMHWFQQKPGTSPKLWIYSTSSLASGVPARFGGSGSGTSYSLTISSMEAEDAATYYCQQRSSFPLTFGAGTKLELKGGGGSGGGGSEIVLTQSPATMSASPGERVTITCSAHSSVSFMHWFQQKPGTSPKLWIYSTSSLASGVPARFGGSGSGTSYSLTISSMEAEDAATYYCQQRSSFPLTFGAGTKLELKRTVAAPSVFIFPPSDEQLKSGTASVVCLLNNFYPREAKVQWKVDNALQSGNSQESVTEQDSKDSTYSLSSTLTLSKADYEKHKVYACEVTHQGLSSPVTKSFNRGEC
heavy: EAQLVQSGAEVVKPGASVKMSCKASGYTFTSYNMHWVKQTPGQGLEWIGYIYPGNGATNYNQKFQGKATLTADPSSSTAYMQISSLTSEDSAVYFCARGDSVPFAYWGQGTLVTVSAGGGGSGGGGSEAQLVQSGAEVVKPGASVKMSCKASGYTFTSYNMHWVKQTPGQGLEWIGYIYPGNGATNYNQKFQGKATLTADPSSSTAYMQISSLTSEDSAVYFCARGDSVPFAYWGQGTLVTVSAASTKGPSVFPLAPSSKSTSGGTAALGCLVKDYFPEPVTVSWNSGALTSGVHTFPAVLQSSGLYSLSSVVTVPSSSLGTQTYICNVNHKPSNTKVDKKVEPKSCDKTHT
notes: also called B-Fab (G4S)2 linker; B-Fab (G4S)2 linker without C-terminal 6xHis tag
As to B4, the “EC50 (read off the curve)” value in test [4] is roughly 2 nM. Further, the Kd in test [1] was 2.3 nM; in test [5], 4 nM.

B5: DOTA conjugate of B-Fab 1153 (Fab)
light: EIVLTQSPATMSASPGERVTITCSAHSSVSFMHWFQQKPGTSPKLWIYSTSSLASGVPARFGGSGSGTSYSLTISSMEAEDAATYYCQQRSSFPLTFGAGTKLELKGGGGSGGGGSEIVLTQSPATMSASPGERVTITCSAHSSVSFMHWFQQKPGTSPKLWIYSTSSLASGVPARFGGSGSGTSYSLTISSMEAEDAATYYCQQRSSFPLTFGAGTKLELKRTVAAPSVFIFPPSDEQLKSGTASVVCLLNNFYPREAKVQWKVDNALQSGNSQESVTEQDSKDSTYSLSSTLTLSKADYEKHKVYACEVTHQGLSSPVTKSFNRGEC
heavy: EAQLVQSGAEVVKPGASVKMSCKASGYTFTSYNMHWVKQTPGQGLEWIGYIYPGNGATNYNQKFQGKATLTADPSSSTAYMQISSLTSEDSAVYFCARGDSVPFAYWGQGTLVTVSAGGGGSGGGGSEAQLVQSGAEVVKPGASVKMSCKASGYTFTSYNMHWVKQTPGQGLEWIGYIYPGNGATNYNQKFQGKATLTADPSSSTAYMQISSLTSEDSAVYFCARGDSVPFAYWGQGTLVTVSAASTKGPSVFPLAPSSKSTSGGTAALGCLVKDYFPEPVTVSWNSGALTSGVHTFPAVLQSSGLYSLSSVVTVPSSSLGTQTYICNVNHKPSNTKVDKKVEPKSCDKTHT
modifications: DOTA chelator conjugated, sites not stated (1.5-2.5 DOTA/fragment)
notes: also called B-Fab (DOTA Conjugate)
B5 had a Kd in test [6] of 7.4 nM.

B6: B-Fab 1151 (Fab)
light: EIVLTQSPATMSASPGERVTITCSAHSSVSFMHWFQQKPGTSPKLWIYSTSSLASGVPARFGGSGSGTSYSLTISSMEAEDAATYYCQQRSSFPLTFGAGTKLELKGGGGSGGGGSEIVLTQSPATMSASPGERVTITCSAHSSVSFMHWFQQKPGTSPKLWIYSTSSLASGVPARFGGSGSGTSYSLTISSMEAEDAATYYCQQRSSFPLTFGAGTKLELKRTVAAPSVFIFPPSDEQLKSGTASVVCLLNNFYPREAKVQWKVDNALQSGNSQESVTEQDSKDSTYSLSSTLTLSKADYEKHKVYACEVTHQGLSSPVTKSFNRGEC
heavy: EAQLVQSGAEVVKPGASVKMSCKASGYTFTSYNMHWVKQTPGQGLEWIGYIYPGNGATNYNQKFQGKATLTADPSSSTAYMQISSLTSEDSAVYFCARGDSVPFAYWGQGTLVTVSAGGGGSGGGGSEAQLVQSGAEVVKPGASVKMSCKASGYTFTSYNMHWVKQTPGQGLEWIGYIYPGNGATNYNQKFQGKATLTADPSSSTAYMQISSLTSEDSAVYFCARGDSVPFAYWGQGTLVTVSAASTKGPSVFPLAPSSKSTSGGTAALGCLVKDYFPEPVTVSWNSGALTSGVHTFPAVLQSSGLYSLSSVVTVPSSSLGTQTYICNVNHKPSNTKVDKKVEPKSCDKTHT
notes: It also carries a C-terminal 6x-His tag; also called B-Fab (G4S)2 linker and C-terminal 6x-His tag
In test [1], B6 had a Kd of 3.4 nM.

B7: anti-CA6 diabody of SEQ ID NO: 12 fused to a tag of SEQ ID NO: 14 (other)
chain: EIVLTQSPATMSASPGERVTITCSAHSSVSFMHWFQQKPGTSPKLWIYSTSSLASGVPARFGGSGSGTSYSLTISSMEAEDAATYYCQQRSSFPLTFGAGTKLELKGGGSGGGGEAQLVQSGAEVVKPGASVKMSCKASGYTFTSYNMHWVKQTPGQGLEWIGYIYPGNGATNYNQKFQGKATLTADPSSSTAYMQISSLTSEDSAVYFCARGDSVPFAYWGQGTLVTVSAGGCGGHHHHHH
For B7, the Kd in test [7] worked out at 10 nM.

B8: DOTA conjugate of the anti-CA6 diabody (SEQ ID NO: 12 fused to SEQ ID NO: 14) (other)
chain: EIVLTQSPATMSASPGERVTITCSAHSSVSFMHWFQQKPGTSPKLWIYSTSSLASGVPARFGGSGSGTSYSLTISSMEAEDAATYYCQQRSSFPLTFGAGTKLELKGGGSGGGGEAQLVQSGAEVVKPGASVKMSCKASGYTFTSYNMHWVKQTPGQGLEWIGYIYPGNGATNYNQKFQGKATLTADPSSSTAYMQISSLTSEDSAVYFCARGDSVPFAYWGQGTLVTVSAGGCGGHHHHHH
modifications: DOTA chelator conjugated, sites not stated
notes: Homodimeric diabody conjugated to DOTA; also called Diabody (DOTA Conjugate)
Take B8: in test [6], the Kd turned out to be 7.5 nM.
